Results published in patent US9181310B2 (priority 2003, dated 2015).
“Also recorded” adds a separate entry of the source. Read-outs that look alike come from different tables or passages of the source. No end group written: not given here.

Columns and labels:
[1] = incubated with intercellular plant fluid of potato; cited from earlier work
[2] = incubated with intercellular plant fluid of rice; cited from earlier work
E. coli ER2566 [3] = format: cell-based
E. coli ER2566 [4] = format: cell-based; conditions: for bacterial stasis induced by expression: berberine chloride 250 ug/ml, 0.25 mM IPTG, 20 hrs of induction
[5] = tested on: X. pelargonii strain CHSC; conditions: in vivo
R. solanacearum = format: in vivo; conditions: sweet pepper leaves, transient expression from pIPG780, 48 hrs after challenge
X. pelargonii = conditions: in vivo
[6] = tested on: X. pelargonii strain CHSC; experiment: Pathogen challenge of transgenic geranium; format: in vivo
Experimental: Following inoculation, plants were held at 32° C. The circled region was cut out, and contained ca. 10^5 cfu/cm^2 live X. pelargonii cells (for details, refer Example 11 below). Photo taken four weeks after inoculation.
Following inoculation, plants were held at 32° C. […] Photo taken four weeks after inoculation.
Cell counts were taken daily for nine days by removing circular sections totaling 1 square centimeter (cm^2) using a cork borer from three inoculated leaves in the area most likely to contain pathogen cells (refer FIGS. 1 and 2). These leaf sections were macerated with a mortar and pestle and 1 milliliter of buffer, diluted using a 1:10 dilution series and 10 microliter drops placed on solid growth medium for counting. […] These plants were both immune to X. pelargonii infection, and rapidly brought the artificially inoculated pathogen population to extinction.
Inoculations were performed using liquid culture grown X. pelargonii cells, sprayed on the leaves at a concentration of 10^7 colony forming units per milliliter (cfu/ml) each. X. pelargonii was also inoculated using scissors dipped in 10^9 cfu/ml of cells to clip the leaves in several places on the same plants that were sprayed. Following X. pelargonii inoculation, plants were held at 32° C. to encourage pathogen growth and symptom development. Four weeks after inoculation, photographs were taken of both nontransgenic geranium variety “Avenida” inoculated with X. pelargonii (FIG. 1) and transgenic geranium of the same variety “Avenida” expressing BombBC inoculated with X. pelargonii (FIG. 2), and circular sections totaling 1 square centimeter (cm^2) were removed using a cork borer from three inoculated leaves in the area most likely to contain pathogen cells (refer FIGS. 1 and 2). Consistently, 10^5 cfu/ml of X. pelargonii was recovered from nontransgenic geranium variety “Avenida” plants at four weeks after inoculation (FIG. 3), and symptoms progressed systemically until the entire plant was dead, usually by 12 weeks after inoculation. […] These plants were immune to X. pelargonii infection.

[7] = tested on: R. solanacearum strain Rsp673; format: in vivo; conditions: transgenic geranium Avenida
[8] = tested on: R. solanacearum strain Rsp446; format: in vivo; conditions: after 68 days
[9] = tested on: Ca. Liberibacter asiaticus; format: in vivo; conditions: transgenic tobacco Xanthi, same on retest three weeks later
[10] = tested on: purified LPS extracted from X. campestris pv. pelargonii, X. citri, Rhizobium leguminosarum and Ralstonia solanacearum; format: biochemical; conditions: 5 ug purified protein, room temperature, 2 hours
[11] = tested on: LPS of X. campestris pv. pelargonii, X. citri, Rhizobium leguminosarum and Ralstonia solanacearum; format: binding; conditions: treated LPS lanes, Western blot
[12] = tested on: rice (Oryza sativa japonica) cv. TP309; experiment: Stable transformation of rice, effect on the plant; conditions: stable transformation with pIPG787
[13] = tested on: Nicotiana tabaccum cv. Xanthi; experiment: Stable transformation of tobacco, effect on the plant; conditions: stable transformation with pIPG786
[14] = tested on: geranium (Pelargonium X hortorum) cv. Avenida; experiment: Stable transformation of geranium, effect on the plant; conditions: stable transformation with pIPG787
[15] = tested on: E. coli strains ADA410 P3rpoH::lacZ reporter (LPS or outer membrane damage); experiment: P3rpoH::lacZ reporter, purified protein droplets on ADA410 cells on X-gal agar; conditions: ten microliter droplets of purified protein, 24 hr
[16] = Exp. 1, cutting (T0), inoculum 5 × 10^7 cfu/ml
[17] = Exp. 2, cutting (T0), inoculum 1 × 10^8 cfu/ml

## cecropin B: linear lytic peptide rapidly degraded by plant proteases (KWKVFKKIEKMGRNIRNGIVKAGPAIAVLGEAKAL; ends and bridges not checked; UniProt P01508 27-61, looked up)
[1]
  half-life: about three
[2]
  half-life: about 25 hours

B1: BombOrfL: Phage 15 ORF L from Xanthomonas campestris pv. pelargonii, SEQ ID No. 15 (protein, listed as Xanthomonas campestris)
chain: MPTVDATPGSITANSYVTVAEANSYFDGSYGRPLWTSASEDEKASLVISASRYLDQMMAWIGAPTNPEQSMWWPCKNAVIGGMTLSQVSIPVKVKIAVFELAYFMLESGAALSFADQTIDSVKVGTIRVEFTKNSTDAGLPTFVEAMLSGFGSPVLYGSNAARSIDLVRA
E. coli ER2566 [3]
  activity of expression clone (growth in presence of berberine chloride): Active

B2: D1: BombBC deletion, aa26-169 of BC, SEQ ID 6 (protein)
chain: MPIAVVALARFGSQSTTTTKAAADALGTTVGKIDDIRKNRNFAYVTADFKPTEAQKADGIEWLKRHPVGADALIEELQNLPVATAEESAAFEQVRASARGQNAKTAEGEVAQAGGGNRRKKKEKPAEAGEVQNPPAADGDSLLS
modifications: mutant D1 predicted amino acid sequence
E. coli ER2566 [4]
  bacterial stasis induced by expression: clearly induced
E. coli ER2566 [4]; berberine chloride (5 micrograms/ml), 20 h after induction
  activity of expression clone (growth in presence of berberine chloride): Active

B3: BombBC: Bacteriophage Outer Membrane Breaching protein of Xanthomonas phage P15 (Xp15) ORF BC, 17.9 kD, SEQ ID NO. 17 (protein, listed as Xanthomonas campestris)
chain: MSDQTDTTQTTPAEKAPPKEIIRGRMPIAVVALARFGSQSTTTTKAAADALGTTVGKIDDIRKNRNFAYVTADFKPTEAQKADGIEWLKRHPVGADALIEELQNLPVATAEESAAFEQVRASARGQNAKTAEGEVAQAGGGNRRKKKEKPAEAGEVQNPPAADGDSLLS
[5]
  HR symptoms elicited by X. pelargonii: abolished
R. solanacearum
  HR symptoms elicited by R. solanacearum: abolished
X. pelargonii
  drop in the number of colony forming units vs. control leaves: 100 ×
  pathogenic symptoms caused by X. pelargonii: greatly reduced
[6]; transgenic geranium Avenida
  resistance status to X. pelargonii infection: immune
[6]; transgenic geranium Avenida leaf, four weeks after inoculation
  X. pelargonii cells in cut out leaf region: no detected X. pelargonii cells
[6]; transgenic geranium Avenida, 32° C.
  symptoms of geranium blight: no evidence of symptoms
[6]; transgenic geranium Avenida, after five days following inoculation
  living X. pelargonii cells recovered: no living X. pelargonii cells were recovered
[7]; syringe infiltration and soil inoculation, 32° C.
  symptom development of bacterial wilt: failed to progress past the leaf area where the pathogen was directly infiltrated; also recorded: No symptom development, other than that which initially developed in, and stayed restricted to, the region of inoculation
[7]; twelve weeks after inoculation
  detected R. solanacearum cells: no detected R. solanacearum cells
[8]; [16]
  number of survivors/total tested: 10/15
  per cent survivors: (63%)
[8]; [17]
  number of survivors/total tested: 9/20
  per cent survivors: (45%)
[8]; Exp. 3, seeded (T1), inoculum 2 × 10^8 cfu/ml
  number of survivors/total tested: 0/21
[9]; 4 weeks connected to dodder
  plants symptomatic for greening: neither of the two
[9]; nested PCR
  plants PCR positive for greening: neither were PCR positive
E. coli ER2566 [4]
  bacterial stasis induced by expression: clearly induced
E. coli ER2566 [3]
  activity of expression clone (growth in presence of berberine chloride): Active
[10]
  degradation of LPS: enzymatically degrades LPS
[11]
  attachment to LPS: attached to the degraded LPS of all species tested
[12]
  detrimental effect on rice plants: not detrimental
[13]
  detrimental effect on tobacco plants: not detrimental
[14]
  detrimental effect on geranium plants: not detrimental
[15]
  blue color around ADA410 cells (P3rpoH::lacZ activation): Blue color slowly developed and intensified

B4: BombORF35PA: Phage PhiKMV ORF 35 from Pseudomonas aeruginosa, SEQ ID No. 9 (protein, listed as Pseudomonas aeruginosa)
chain: MAFWLPLLAAGGMSALQQGLANKEERNKIKAENKARLKTDLDNLGAAARDIANLGVMAASYRKQAVASQVEAKRQGMLAGGSAEAQAGAFGVKGASVDAVALDIEREVGEALIQIDDNLDNQMWNLAEQAHSIQAQAKAGLLGQKSTTAGQRSPLVAGLMSAGSLYASQYFKFGATPKGGN
E. coli ER2566 [3]
  activity of expression clone (growth in presence of berberine chloride): Active

B5: BombOrf9: Phage 13 ORF 9 from Xanthomonas campestris pv. pelargonii, SEQ ID No. 13 (protein, listed as Xanthomonas campestris)
chain: MVVVAQGTVPAKVHPQLTNLTALFADAVGLFLDVSDKVADLLVRFADVEAQGAELLLDLAHLAVPASVVHPTHAGQDQTVPAASDILHGVLEGQPVALVVNQRALRAAQLNPLLALRLDVEAVADQDAEGGAVAHAHAGDQLAVEQKLQILLERFGHDALAGHRRVEPIAYLVDVRSWEAGALDADQPRDDTADGDDAHAQRFVRHVERDGFGSGVLHPSQVRQRLAVLVDDFVEGSRVALDDRANHGEVGVDRVHQ
E. coli ER2566 [3]
  activity of expression clone (growth in presence of berberine chloride): Active
  relative strength of activity in E. coli: Weak activity
